This is an account of results in patent US20210388105A1 (ELPISCIENCE SUZHOU BIOPHARMA, published 2021).

Experiment [1] deals with T1, cynomolgus CD39 (full length, on CHOK1-cynoCD39 cells) (cynomolgus monkey, UniProt A0A7N9DGH8 1-510).
T1 construct: whole, on cells; also called cCD39
T1 sequence: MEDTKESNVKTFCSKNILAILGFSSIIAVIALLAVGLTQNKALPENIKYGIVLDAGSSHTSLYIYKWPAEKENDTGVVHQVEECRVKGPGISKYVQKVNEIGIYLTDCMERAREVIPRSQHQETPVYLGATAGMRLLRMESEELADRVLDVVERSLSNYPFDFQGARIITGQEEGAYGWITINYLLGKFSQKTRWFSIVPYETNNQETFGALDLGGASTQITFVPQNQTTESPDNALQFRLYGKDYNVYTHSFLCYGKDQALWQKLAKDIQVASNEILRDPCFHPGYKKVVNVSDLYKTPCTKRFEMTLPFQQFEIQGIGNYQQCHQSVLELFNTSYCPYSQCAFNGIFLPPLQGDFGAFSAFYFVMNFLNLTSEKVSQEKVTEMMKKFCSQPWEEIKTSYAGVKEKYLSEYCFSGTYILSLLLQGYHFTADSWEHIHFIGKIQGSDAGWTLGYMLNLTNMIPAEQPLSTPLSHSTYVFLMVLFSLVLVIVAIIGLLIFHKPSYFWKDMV
As to the kind of experiment: FACS, CHOK1-cynoCD39 cells. From the text:
(§1) FACS were used to determine binding of the antibodies to cell lines expressing CD39 naturally (SK-MEL-28) or recombinantly (CHOK1-hCD39, CHOK1-cynoCD39, and CHOK1-mCD39), or with cells lacking CD39 expression (CHOK1-blank) as a negative control.
(§2) CHOK1-hCD39, CHOK1-cCD39, CHOK1-mCD39 and CHOK1-blank cells were maintained in culture medium according to ATCC procedure. Cells were collected and re-suspended in blocking buffer at a density of 3×10⁶ cells/ml. Cells were transferred to 96 well FACS plates at 100 μl/well (3×10⁵ cells/well), the plates were centrifuged and washed twice with FACS buffer (PBS, 1% FBS, 0.05% Tween-20). 4-folds serial dilution of anti-CD39 antibodies were prepared in FACS buffer starting from 30 μg/ml. Reference antibody 9-8B and mouse/human control IgG were used as positive and negative controls, respectively. Cells were re-suspended in 100 μL/well diluted antibodies, and the plates were incubated at 4° C. for 60 min. […] The plates were washed with FACS buffer, and cells were re-suspended in 100 μL/well of PBS. Cells were then analyzed with FACSVerse™ and mean fluorescence intensity were determined. Full binding curves were generated on the CD39 expressing cells by testing a range of antibody concentrations. Apparent affinity was determined for each antibody using Prism software.
(Flow cytometry measures light scatter and fluorescence of single cells or particles in a stream.)

Experiment [2] concerns the target T2, human CD39 (full length, on cells) (human, UniProt P49961 1-510).
T2 construct: Recombinant on CHOK1-hCD39 cells or natural on SK-MEL-28, SK-MEL-5 and MOLP-8 cells; the cell line is named under assay; also called hCD39; ENTPD1
T2 sequence: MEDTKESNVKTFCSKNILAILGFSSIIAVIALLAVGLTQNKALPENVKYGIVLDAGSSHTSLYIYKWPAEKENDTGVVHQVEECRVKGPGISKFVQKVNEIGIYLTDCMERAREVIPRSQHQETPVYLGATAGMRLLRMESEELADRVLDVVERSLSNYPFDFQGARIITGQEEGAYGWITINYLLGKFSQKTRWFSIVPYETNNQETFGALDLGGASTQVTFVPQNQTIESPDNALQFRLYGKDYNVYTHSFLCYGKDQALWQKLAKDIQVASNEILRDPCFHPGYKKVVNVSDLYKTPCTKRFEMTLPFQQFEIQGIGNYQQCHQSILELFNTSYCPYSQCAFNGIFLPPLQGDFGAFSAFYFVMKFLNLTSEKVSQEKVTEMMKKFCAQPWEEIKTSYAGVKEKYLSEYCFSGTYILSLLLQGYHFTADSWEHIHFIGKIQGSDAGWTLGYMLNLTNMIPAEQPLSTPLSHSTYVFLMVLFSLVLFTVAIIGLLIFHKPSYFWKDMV
As to the kind of experiment: FACS competition on CHOK1-hCD39; competitor 9-8B-Alexa488. Here is the method:
(§3) Anti-CD39 antibodies were labeled using Alex488 labeling kit and were diluted in a series of concentrations, before mixing with CHOK1-hCD39 cells to test binding EC₅₀using FACS. The non-labeled antibodies were tested for their blocking efficacy to the labelled ones. Briefly, mononuclear CHOK1-hCD39 cells were prepared to 2×10⁶/ml and plated into 96 well at 50 μl/well, then mixed with antibodies gradients to final volume at 100 μl, and then equal volume of Alex488 label antibodies were added at two folds EC80 concentration. 96 well plates were incubated at 4° C. for 1 hour, and spun down and washed 3 times with 200 μl FACS buffer. The FACS analysis was performed on FACScelesta machine and data was analyzed by Flowjo software. The blocking percentages were calculated and those having above 80% competition rate were allocated into one epitope group, compared with the non-competing well (Alex488 labeled antibody only).
(§4) Based on the competition results, the 4 anti-CD39 hybridoma antibodies (mAb14, mAb19, mAb21, mAb23) can be grouped into 4 different epitope groups, as shown in Table 11.

Experiment [3] has as its target T2, human CD39 (full length, on cells). The experiment can be described thus: FACS, SK-MEL-28 cells. Here is the method: as §1
(§5) Similarly, human CD39 expressing cells SK-MEL-5, SK-MEL-28 or MOLP-8, were incubated with a gradient concentration of anti-CD39 antibodies for 30 minutes at 4° C. Cells were washed 3 times using FACS buffer and next incubated with fluorescence labelled secondary antibody (goat-anti-mouse IgG or goat anti-human IgG) for 30 minutes at 4° C. Cells were washed 3 times and then re-suspended in FACS buffer and analyzed by flow cytometry analysis on BD Celesta. Data plotted and analyzed using GraphPad Prism 8.02.

Experiment [4] shares this target. As to the kind of experiment: FACS, CHOK1-hCD39 cells.
Text: as §1, §2

Experiment [5] deals with T3, mouse CD39 (full length, on CHOK1-mCD39 cells) (mouse, UniProt P55772 1-510).
T3 construct: whole, on cells
T3 sequence (looked up): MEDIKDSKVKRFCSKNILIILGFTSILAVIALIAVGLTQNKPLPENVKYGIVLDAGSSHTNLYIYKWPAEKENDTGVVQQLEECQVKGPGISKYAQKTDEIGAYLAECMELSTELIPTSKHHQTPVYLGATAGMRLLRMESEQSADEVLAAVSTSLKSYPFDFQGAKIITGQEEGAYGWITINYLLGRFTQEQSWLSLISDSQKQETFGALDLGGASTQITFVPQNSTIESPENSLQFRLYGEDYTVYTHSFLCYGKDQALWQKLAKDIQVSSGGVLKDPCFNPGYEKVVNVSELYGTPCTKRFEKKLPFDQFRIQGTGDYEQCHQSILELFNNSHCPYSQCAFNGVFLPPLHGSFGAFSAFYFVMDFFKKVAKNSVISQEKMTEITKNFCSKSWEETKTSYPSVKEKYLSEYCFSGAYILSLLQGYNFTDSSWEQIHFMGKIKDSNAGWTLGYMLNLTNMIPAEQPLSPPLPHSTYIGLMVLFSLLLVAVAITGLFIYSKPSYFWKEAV
The experiment can be described thus: FACS, CHOK1-mCD39 cells.
Text: as §1, §2

The target of experiment [6] is T2, human CD39 (full length, on cells). The experiment can be described thus: FACS competition on CHOK1-hCD39; competitor mAb23-Alexa488. On the procedure:
as §3, §4

Experiment [7] has the same target. The experiment can be described thus: FACS competition on CHOK1-hCD39; competitor mAb21-Alexa488. On the procedure: as §3, §4
Experiment [8] shares this target. As to the kind of experiment: FACS competition on CHOK1-hCD39; competitor mAb19-Alexa488. On the procedure: as §3, §4
The target is the same in experiment [9]. The experiment can be described thus: FACS competition on CHOK1-hCD39; competitor mAb14-Alexa488. Here is the method:
as §3, §4

Experiment [10] has the same target. As to the kind of experiment: cell-based or functional assay.
Experiment [11] shares this target. The experiment can be described thus: FACS, MOLP-8 cells. On the procedure:
as §5
(§6) The binding affinity of the humanized antibodies for c23 was determined by FACS, using similar methods as described in Example 3.2. The c23 humanized antibody clones showing good binding affinity are listed in below Table 19 and Table 20, and also shown in FIGS. 7A, 7B and FIG. 8. EC₅₀ is the concentration of the indicated antibodies to reach 50% of the signal in this assay.

The target is the same in experiment [12]. The experiment can be described thus: FACS, MOLP-8 cells. Here is the method:
as §5, §6
This is another data set of the same source.

Experiment [13] has the same target. The experiment can be described thus: cell-based or functional assay. The source holds these as a separate data set.
Another experiment has as its target T4, 6×His tagged human CD39 (human, UniProt P49961 38-478).
T4 construct: Analyte in the Biacore assay
T4 sequence: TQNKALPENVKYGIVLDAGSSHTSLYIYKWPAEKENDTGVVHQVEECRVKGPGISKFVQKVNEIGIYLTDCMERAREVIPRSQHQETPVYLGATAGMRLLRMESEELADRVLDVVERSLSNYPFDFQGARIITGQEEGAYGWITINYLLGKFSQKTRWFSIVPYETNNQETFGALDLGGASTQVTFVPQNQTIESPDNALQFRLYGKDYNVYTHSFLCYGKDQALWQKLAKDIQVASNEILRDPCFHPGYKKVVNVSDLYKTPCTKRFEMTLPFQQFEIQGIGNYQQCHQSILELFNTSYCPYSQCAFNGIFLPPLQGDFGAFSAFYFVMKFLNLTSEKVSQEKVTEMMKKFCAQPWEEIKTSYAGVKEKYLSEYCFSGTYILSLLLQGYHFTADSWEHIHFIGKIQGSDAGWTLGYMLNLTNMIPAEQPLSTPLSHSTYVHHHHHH
As to the kind of experiment: Biacore SPR, antibody captured on CM5 chip, His-tagged CD39 as analyte. On the procedure: In particular, humanized antibodies hu23.H5L5, hu23.201, hu14.H1L1 and reference antibodies 1394 and T895 were characterized for binding affinity against human CD39 using Biacore (GE). Briefly the antibodies to be tested were captured to CM5 chip (GE) using Human Antibody Capture Kit (GE). The antigen of 6×His tagged human CD39 was serially diluted for multiple doses and injected at 30 μl/min for 180s. Buffer flow was maintained for dissociation of 400s. 3 M MgCl2 was used for chip regeneration. The association and dissociation curves were fit with 1:1 binding model, and the Ka/Kd/KD values for each antibody were calculated.
On the technique in general: SPR reads the build-up and loss of mass on a sensor chip optically.

“And” between values parts separate entries of the source, which are not always exact repeats. Equal entries are not always repeated.

A word on the EC50: it is the midpoint of the concentration-response curve. The low end stands for a more potent agent, the high end for a less potent agent. The Kd is a measure of binding affinity in units of concentration. A higher Kd goes with weaker binding. In general, koff refers to the first-order rate constant of dissociation. The kon is a measure of how fast the partners come together.

B1: mAb21 (antibody, V domains shown)
VH: EVKLEKSGGGLVQPGGSMKLSCVASGFTFSNYWMNWVRQSPEKGLEWVAQIRLNPDNYATHFAESVKGRFTISRDDSKNSVYLQMNSLRAEDTGIYYCTEHGTRGFAYWGQGTLVTVSE
VL: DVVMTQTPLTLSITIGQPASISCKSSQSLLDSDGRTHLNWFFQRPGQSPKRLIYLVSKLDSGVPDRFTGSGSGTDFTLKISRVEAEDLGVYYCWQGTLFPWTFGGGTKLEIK
notes: mouse hybridoma antibody
In the case of B1, the EC50 in experiment [1] is 11 nM; in [3], 90 nM; in experiment [4] it was 6.7 nM. For the same molecule, the blocking percentage was 20% in [2]; 97% in experiment [6]; 90% in experiment [7]; 98% in [8]; 24% in [9]. For the same molecule, the binding result in experiment [5] is listed as “no binding (tested: 30 µg/ml highest concentration)”. Also, the “SK-MEL-28 cell based ATPase inhibition % at 10 nM” value in experiment [10] amounted to 70%.

B2: mAb19 (antibody, V domains shown)
VH: EVKLEKSGGGLVQPGGSMKLSCVASGFTFSNYWMNWVRQSPEKGLEWVAQIRLNPDNYATHYAESVKGRFTISRDDYKNSVYLQMSSLRAEDSGIYYCTQHGSRGFAYWGQGTLVTVS
VL: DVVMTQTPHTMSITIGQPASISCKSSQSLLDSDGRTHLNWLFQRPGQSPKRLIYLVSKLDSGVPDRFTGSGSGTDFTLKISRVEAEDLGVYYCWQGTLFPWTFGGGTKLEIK
notes: mouse hybridoma antibody
B2: the EC50 in experiment [1] came to 5.8 nM; in experiment [3], 46 nM; in experiment [4], 4.5 nM. The blocking percentage worked out at 6% in experiment [2]; 91% in [6]; 83% in experiment [7]; 96% in experiment [8]; 23% in experiment [9]. For the same molecule, in [5], the binding result is “no binding (tested: 30 µg/ml highest concentration)”. Further, the “SK-MEL-28 cell based ATPase inhibition % at 10 nM” value in experiment [10] turned out to be 65%.

B3: c23 (antibody, V domains shown)
VH: EVQLQQSGAELLRPGASVKLSCTASGYNLKDTFLHWVKQRPEQGLEWIGRIDPANGNIKYDPKFQGKATLTADTSSNTAYLQLISLTSEDTAVYYCANSPYYYGSGYRIFDVWGAGTTVTVSS
VL: QIVLTQSPAIMSASPGEKVTITCSAFSSVNYMHWYQQKPGTSPKLLIYTTSNLASGVPTRFSGSGSGTSYSLTISRMEAEDAATYYCQQRSTYPFTFGSGTKLEIQ
notes: variable regions of mAb23 on human IgG constant regions; also called chimeric antibody c23
As for B3, the EC50 in experiment [11] was 1.28 nM; in [12], 1.03 nM and 0.397 nM. Moreover, the “ATPase inhibition IC50 on SK-MEL-28 cells” value in [13] was 0.158 nM and 0.209 nM.

B4: hu23.201 (antibody, V domains shown)
VH: QVQLVQSGAEVKKPGASVKVSCKASGYTLKDTFLHWVRQAPGQRLEWMGRIDPANGNIKYDPKFQGRVTLTADTSSNTAYMELSSLRSEDTAVYYCANSPYYYGSGYRIFDVWGQGTLVTVSS
VL: EIVLTQSPATLSLSPGERATLSCSAFSSVNYMHWYQQKPGQSPRLLIYTTSNLASGIPARFSGSGSGTDYTLTISSLEPEDFAVYYCQQRSTYPFTFGQGTKLEIK
notes: humanized c23 by yeast display
The molecule B4 registered an EC50 in experiment [11] of 1.29 nM. Besides, in the experiment with 6×His tagged human CD39, binding was characterised by a dissociation constant (Kd) of 24 nM, the koff came to 0.00162 s⁻¹ and the kon came out at 67500 M⁻¹ s⁻¹. For the same molecule, the “ATPase inhibition IC50 on SK-MEL-28 cells” value in experiment [13] was 0.264 nM.
